Assay: label from the status in PepcDB records

MHSGLNPQDIAFLKTIIAFFFLSVFLFKVPVSQKIAYISSTPSKLSVFTQIAICAFLGIFSLFFFETIAYNHGAAANVVVVLMASAAISALFFGRLILKESIYINSLIGTLLAVAGISIISWKGENSLLMLINASIAGTGYGLFSVLVKKFKLNGGLFLTKYLLLFGSVYLAVPFLVNLHAIHFNIDIVLGLIGLAVLPTILGFFCTTKALSYMSAAKVQVTELSEPIFAALMAWVFIHEQPTLSFLYGAIFIISGIFVMNRAPKSN
protein production: failed

MHSIQSPRLRQHFPRRSPKKLALKKSGGLGHRAKASHCYRIVLYSHDTMGLGHKRRNLLIAQTLQKSRLPVEILVITGIEEGNEALTAAGINYVNLPSLRKNGDGSYSGRDLDLPLEKLIAWRSQLILKTIQQFQPDVLMVDNVPRGVERELDPSLKYLRQRPESLCVLGLRDILDQPGTVQRDWGQADNERAIRRYYDAVWVYGDPQVYDLRHEYGFAPDVTAKMRPLGYFHQGDRLQHLTKPWQETLSNWKLPSRFILGAVGGGQDGETLAIAFAQIPFTADLPGVLLTGPFMPESVRQKLKVSAQNNPDLTILPYFSEPTMLMWAAERVITMGGYNTTCEILSFQKPALIIPRIKPRQEQWLRATRLKQLGLVDVLHPDQVNAQNLTAWLHSAPTNQYNKPVLNLRATQQLPLVLGQLLSTRNCFMSQAC
protein production: failed

MHSNINTLIANHRAGHALDQAFYTDAEVFQTDLQEIFYKEWLFAIPACELDKPGSYVTHQVGNYNVIIVRGADNVIRAFHNACRHRGSVICKAKKGNNPKLVCPYHQWTYELDGRLLWARDMGPDFEPSRHGLKTVHCRELAGLIYICLADEAPDFERFAEVARPYLEVHDLSNAKVAHESSIVERGNWKLVWENNRECYHCGGNHPALCRTFPDDPSVTGIEGGETPSNLQAHFDRCEQAGMPSGFHLSGDGQFRVARMPLKEGAESYTMDGKTAVRRWLGRAAFADAGSLLKFHYPTTWNHFLSDHSIVFRVTPISPTETEVTTKWLVHKDAVEGVDYDLQRLTEVWIATNDEDREVVEFNQMGINSPAYEPGPYSPTQESGVLQFVEWYLSTLKRNSGPHAVAAE
protein production: not failed

MHSTIGRLLEQTADAYPDRDAVVYPDRNIRYTYAQFDSLCRQTAKGLMRMGIGKGDHVAIWASNISEWLAVQFATAKIGAVLVTVNTNYQAHELDYLLKQSDAAALIIMDSYRGTSYPDIVNSLIPELQEAKPGQLKSERYPFLKTLIYIGNKRLSGMYHWDDTEILAKTVTDAELEERMNSLDKDNVINMQYTSGTTGFPKGVMLTHFNVINNAANIAECMALTSQDRMCIPVPFFHCFGCVLGVLACVSVGAAMIPVQEFDPVTVLKTVEKEKCTVLHGVPTMFIAELHHPDFDAYDLSTLRTGIMAGSPCPSEVMKAVIERMGMKDITIAYGQTEASPVITQTRANDSFIRRVETTGRALPHTEVKIVEPGTCQEVQRGMQGELCTRGYHVMKGYYKDKDATRKAINHDGWLFTGDLAVMDEDGYCRITGRLKDMLIRGGENIYPREIEEFLYQHPAVLDVQVVGVPDAKFGEEAAAWIKLKDGKSVSPDELKAYCKGKIARHKIPRYVIFTDDYPMTAS
protein production: failed

MHTAICDELGIEFPIFAFTHCRDVVVAVSKAGGFGVLGAVGFTPEQLEIELNWIDEHIGDHPYGVDIVIPNKYEGMDSQLSADELAKTLRSMVPQEHLDFARKILADHGVPVEDADEDSLQLLGWTEATATPQVDAALKHPKMTMVANALGTPPADMIKHIHDSGRKVAALCGSPSQARKHADAGVDIIIAQGGEAGGHCGEVGSIVLWPQVVKEVAPVPVLAAGGIGSGQQIAAALALGTQGAWTGSQWLMVEEAANTAVQQAAYVKATSRDTVRSRSFTGKPARMLRNDWTEAWEQPESPKPLGMPLQYMVSGMAVKATHKYPNETVDVAFNPVGQVVGQFTKVEKTATVIERWVQEYLEATARLDALNAAASV
protein production: failed

MHVALNQTMPDDVQGTVATIYTSSEQLQLFAFEAEVNENFEMAAAYYKERLVREPQNLDHWLDYGAFCLLTEDNIKAQECFQKALSLNQSHIHSLLLCGVLAVLLENYEQAEIFFEDATCLEPTNVVAWTLLGLYYEIQNNDIRMEMAFHEASKQLQARMLQAQVTKQKSTGVEDTEERGKRESSLGPWGITNGSATAIKVEAPAGPGAALSILDKFLEESSKLQSDSQEPILTTQTWDPSISQKPSNTFIKEIPTKKEASKCQDSSALLHPGLHYGVSQTTTIFMETIHFLMKVKAVQYVHRVLAHELLCPQGGPSCEYYLVLAQTHILKKNFAKAEEYLQQAAQMDYLNPNVWGLKGHLYFLSGNHSEAKACYERTISFVVDASEMHFIFLRLGLIYLEEKELEELTEAEDALSEANALNNYNAEVWAYLALVCLKVGRQLEAEQAYKYMIKLKLKDEALLAEIHTLQETVGFGNPSF
protein production: failed

MHVAVRRSNTPHPLSSLRHDIVIEPLEEERPPSRFGYDMAGKALSVQPTIDPSAKLHETRLGAYTEVGARTILHEVTMGDYSYVVNDSQITYTTIGKFCSIAAMTRINPGNHPMHRATQAHFTYRSSAYFPGESDDTEFFDWRRQHHVHIGHDVWIGHGAIVLPGRNIGTGAVIAAGAIVTKDVPAYTIVAGNPARIVRRRFSEEIAGRLARLAWWDWDHDKLREALPDFRRLGIEDFLSTYEARAHSPVSKRSAVA
protein production: failed

MHVISTSKKTVLSDFADLETKSEYVHQNAEPTDFQFNGQRRVFVEVDKMAGLAVMRIKEKDGKTPEIQRVRKLTIDNAFCVACAKQSLEEIAVGQSGCVKLYNFRTAQLIHRFPADPQRSTVLYMDYNNTDEYIAAVRDGGDISILGTKTKQKTNTFTIDGDSTLVRFHPSKRFHLSIASYKGAVTVYDVQGMRKIFHASEAHSAPCRDISMCTSQPALLVSVGYDCKINIFDIRRNRAQASTDRLTYSHPLSTVALSECGTYLCAGNLKGELIAYDMRSTKAPLAVRSVHDAAVTRVAFVPVPSGDNQQNGSLNSSENATGLATEAPRVERAPSDELRKSIAANLLSTQNQLTSLGYGVSTPTIVRRDSFCEFLDAQGPRAVDRMSTRLGASYRDSFDWETLNRKPQPYETANRQSLCPPVASGPSSVDNSVNSSTTESLQQTLSGPLKDRSNISGDGKLMKIAETDELCEEQSANISVASSTGGGSDKENPPPVDAEMKRRLRLLSASRNSTPHHANITPQSSNPLLKPQQLLAKSSSGLSAQMDADWRKEFSELRDFVDQRCEKVERELEYVTFSNQRLLANKMTNYMDQQVENTREIRDALALLLQGDSFMREFSRLQNENEMLKAKLKFYQEQEQTESCGE
protein production: failed

MHVPIRLLEWFKVEQTLVIQKKKRFGFSQGIGITLLIAIVAKYLAELPFLNIMGQLVIAILIGMVWRAAIGVPHDAIAGTNFASKKLLRFGIILLGMRLNLVDIAKAGPKVLVIAAVVITFTIFVVYGLTKVFKVEKKLGILTACGTAICGAAAVVAIAPQVKAKDDETAVGAAIIAILGTIFTLIYTLLYPVLGLSPYGYGVFSGATLHEIAHVIAAAAPGGSAAVDIAVIVKLTRVAMLVPVAILIGLWFGKSEGSKEKRSWRDLPIPWFIFGFLAMSAVHSLGIIPEVVAGYIVVIAYMLIAMAMAGLGLNVEFKTFRKLGSKAFVAGLIGSVCLSVLGYVLVYALGFM
protein production: failed

MHVSSGRWVYGLFLALLTALLWGILPIKLKQVLQVMDPVTVTWFRLTVSGGCLLAYLAAVGRLPRWRVLGPKGIWLVPISVCGLVGNYVLYLMGLNLLSPGTAQLVVQMGPILLLIASLFVFKERFSLGQGLGLLVLLIGFGLFFNQRLSELLTSLSDYTAGVLTILAASAVWTFYALGQKQLLSVWNSLQVMMVIYLFCALLLTPWAHPLEALEVNPLQGWLLLGCCLNTLIAYGAFAEALAHWEASRVSATLAITPLVTFVAVAWAAWLWPEYVQAEQINGLGYGGALLVVLGSALTALGPSLMAGLRARRQRIAAG
protein production: failed

MHVYESDVSWIDDRRTEVSVGDHRIEVDSPPEFGGPEGQLYPETLFPSVLASCLLTTFLEFKDRMGINLKSWNSHVTAELGPSPEKGFKFHRIKIHVKIGVNDEDKEKIPRAMQLAEKYCFISRAIRNNVEEIVDYEFV
protein production: not failed

MIAAYENSKWEPVKWENDMHCAVKIQDKNQWRRGQIIRMVTDTLVEVLLYDVGVELVVNVDCLRKLEENLKTMGRLSL
protein production: not failed

MIADDPHLELRLAASERDLRAAQRLRYTVFVEELGGDGDLVDHAERLERDEFDDLCDHLLLIDRRRDAAALEDVVGVYRLLPGERAAGAGRFYCDSEYDLDPLRASGRRVLELGRSCVHPDYRGGAAVFLLWSGLADYALAQRTELLFGVASFHGTDIEALAEPLSYLHAFHLAPEELRVRARSEGGQRMDLIPPERIDRRAAMLA
protein production: not failed

— a protein production outcome set (Wang et al. 2014)
